Experiments:
[1] = test system: human ankle cartilage explants; test: Quantitative uptake of fusion proteins in human ankle cartilage (uptake ratio); format: in vitro ADME; conditions: 1 μM in PBS + 1% BSA
Description: Cartilage explants were incubated in 250 μL of 1 μM solutions of different fusion proteins dissolved in 1×PBS+1% BSA for either 36 hours (FIG. 4A) or for 108 hours (FIG. 4B) (4.5 days). A group with free +9 GFP dissolved in 1×PBS+1% BSA (1 μM concentration) was included as a control for each of these two time points. An additional untreated control was included in these experiments. Cartilage explants were incubated in plain 1×PBS+1% BSA to account for and to correct for any autofluorescence effects. At the end of the incubation in the 1×PBS+1% BSA: The explants were transferred to a 10×PBS+1% BSA bath for 48 hours. The purpose of this was to desorb the GFPs taken up by the explants. The amount of GFPs left behind in the […] bath was quantified through fluorescence measurements. The desorption step in 10×PBS+1% BSA was followed by a second desorption step using fresh 10×PBS+1% BSA just to ensure any GFPs left in the explant after the 1st desorption come out. At the end of each desorption step, the fluorescence of the 10×PBS+1% BSA bath was measured. After the 2nd desorption step, the explants were digested in Proteinase K and their fluorescence was measured. The uptake ratio for the 36 hour and 108 hour experiments was calculated as (FIG. 4C): […]
Cartilage explants that had been equilibrated in culture medium post-harvest were transferred to sterile PBS and allowed to equilibrate for 1 hour before the start of the experiments. Sterile PBS solutions containing 1% bovine serum albumin (BSA) were prepared. Following this, 1 μM solutions of (+9GFP), (+9GFP)-(GGGGS)4-(IGF-1) (SEQ ID NO: 7), (+9GFP)-(EAAAK)3-(IGF-1) (SEQ ID NO: 8) and (+9GFP)-(GGGGS)3-(IGF-1) (SEQ ID NO: 9) were prepared. The BSA was included in the PBS to minimize loss of GFPs in the solution caused by non-specific binding to the plasticware. […] In contrast, use of polypropylene with 1% BSA enabled complete recovery of fluorescence.
At the end of the incubation period, cartilage explants were washed with PBS and transferred to a solution of 10×PBS+1% BSA for desorption. At the same time, the fluorescence of the absorption bath was measured using a plate reader (Synergy H1, Biotek Instruments Inc.) (excitation: 485 nm, emission: 528 nm). […] At the end of the desorption in 10×PBS+1% BSA, cartilage explants were weighed, and the fluorescence of the desorption bath was measured. This fluorescence measurement was used with a standard curve and the explant wet weights to calculate the concentration of GFP inside cartilage explants (mol/mg wet weight). The uptake ratio was calculated as the ratio of GFP concentration inside cartilage (mol/mg wet weight) to the final absorption bath concentration (mol/mL).

[2] = test system: human ankle cartilage explants treated with IL-1β; test: IL-1β cytokine challenge model, sGAG biosynthesis rate in human ankle cartilage explants; format: cell-based; conditions: 100 pg/ml (Experiment 5A also 500 pg/ml and 1000 pg/ml) human IL-1β alone; days 6-8
Description: Cartilage was harvested from the ankles of a donor (Collins Grade 1) and a donor (Collins Grade 1). Cartilage explants were equilibrated in culture media for 2 days after harvest. […] These were cut down to 1 mm thickness and allowed to equilibrate for a further 2 days before experiments were set up. Human IL-1β was used to induce osteoarthritis-like changes in cartilage. Experiments were set up to identify IL-1β doses at which 40 nM of free IGF-1 can rescue the IL-1β induced biosynthesis loss in cartilage. A dose response experiment in which single doses of (+9GFP)-(GGGGS)4-(IGF-1) (SEQ ID NO: 7) and (+9GFP)-(EAAAK)3-(IGF-1) (SEQ ID NO: 8) were added along with 100 pg/ml human IL-1β was also set up.
Experimental groups (N=8 to 10 cartilage explants in each group): Untreated control (Ctrl in FIG. 6A and FIG. 6B), 10 pg/mL human IL-1β (10 pg/ml IL-1b in FIG. 6A and FIG. 6B), 10 pg/mL human IL-1β+40 nM IGF-1 (10 pg/ml IL-1b+40 nM IGF-1 in FIG. 6A and FIG. 6B), 100 pg/mL human IL-1β (100 pg/ml IL-1b in FIG. 6A and FIG. 6B), 100 pg/mL human IL-1β+40 nM IGF-1 (100 pg/ml IL-1b+40 nM IGF-1 in FIG. 6A and FIG. 6B), 500 pg/mL human IL-1β (500 pg/ml IL-1b in FIG. 6A and […]), 500 pg/mL human IL-1β+40 nM IGF-1 (500 pg/ml IL-1b+40 nM IGF-1 in FIG. 6A and FIG. 6B), 1000 pg/mL human IL-1β (1 ng/ml IL-1b in FIG. 6A and FIG. 6B), 1000 pg/mL human IL-1β+40 nM IGF-1 (1 ng/ml IL-1b+40 nM IGF-1 in FIG. 6A and FIG. 6B). Media changes were performed every 2 days and the experiment was terminated after 8 days.
Chondrocyte biosynthesis rate (primarily aggrecan synthesis) was measured between days 6 and 8 of the experiment using a 35S-sulfate radiolabel. Statistics: 1-way ANOVA with post-hoc Tukey's HSD test.
This experiment was set up with cartilage explants from the donor ankle. Experimental groups (N=8 to 10 cartilage explants in each group): Untreated control (Ctrl in FIG. 6C), Continuous human IL-1β control (100 pg/ml dose added with every media change) (IL-1b in FIG. 6C), Continuous human IL-1β+continuous free IGF-1 control (100 pg/ml human IL-1β and 40 nM free IGF-1 dose added with every media change) (IL-1b+IGF1 FIG. 6C), Continuous human IL-1β+(+9GFP)-(GGGGS)4-(IGF-1) (SEQ ID NO: 7) 500 nM single dose (100 pg/ml human IL-1β added with every media change; Single 500 nM fusion protein dose added on Day 0) (IL-1b+0.5 μM Flex-1 in FIG. 6C), Continuous human IL-1β+(+9GFP)-(GGGGS)4-(IGF-1) (SEQ ID NO: 7) 1 μM single dose (100 pg/ml human IL-1β added with every media change; Single 1 μM fusion protein dose added on Day 0) (IL-1b+1 μM Flex-1 in FIG. 6C), Continuous human IL-1β+(+9GFP)-(EAAAK)3-(IGF-1) (SEQ ID NO: 8) 500 nM single dose (100 pg/ml human IL-1β added with every media change; Single 500 nM fusion protein dose added on Day 0), Continuous human IL-1β+(+9GFP)-(EAAAK)3-(IGF-1) (SEQ ID NO: 8) 1 μM single dose (100 pg/ml human IL-1β added with every media change; Single 1 μM fusion protein dose added on Day 0) (IL-1b+1 μM Rig-1 in FIG. 6C).
Preliminary dose response experiments were performed to test the effects of human IL-1β (PeproTech, Rocky Hill, NJ) on human ankle cartilage. Ankle cartilage explants from two different donors (equilibrated in culture medium post-harvest) were cultured in serum-free low glucose medium (same composition as equilibration medium) and treated with continuous IL-1β doses ranging from 10 pg/ml to 1 ng/ml for 8 days. The experiments also included groups of explants that were treated with 300 ng/ml free IGF-1 at each dose level of IL-1β. Based on the results of these experiments, 100 pg/ml IL-1β was chosen as the dose used for the fusion protein dose response experiments. In these experiments, ankle and knee cartilage explants (equilibrated in culture medium post-harvest) were treated continuously with IL-1β and received single doses of fusion proteins (ranging from 39.2 nM to 2 μM) at the start of the experiments. […]

[3] = test system: human ankle cartilage explants treated with IL-1β; test: Cumulative sGAG loss and final sGAG content (DMMB) in IL-1β challenge, human ankle cartilage; format: cell-based; conditions: 100 pg/ml IL-1β alone; 10-day time point
Description: Preliminary dose response experiments were performed to test the effects of human IL-1β (PeproTech, Rocky Hill, NJ) on human ankle cartilage. Ankle cartilage explants from two different donors (equilibrated in culture medium post-harvest) were cultured in serum-free low glucose medium (same composition as equilibration medium) and treated with continuous IL-1β doses ranging from 10 pg/ml to 1 ng/ml for 8 days. The experiments also included groups of explants that were treated with 300 ng/ml free IGF-1 at each dose level of IL-1β. Based on the results of these experiments, 100 pg/ml IL-1β was chosen as the dose used for the fusion protein dose response experiments. In these experiments, ankle and knee cartilage explants (equilibrated in culture medium post-harvest) were treated continuously with IL-1β and received single doses of fusion proteins (ranging from 39.2 nM to 2 μM) at the start of the experiments. Media changes with IL-1β but without fusion proteins were performed once every 2 to 3 days. An untreated control group, a control with continuous IL-1β alone, and a control with IL-1β combined with continuous free IGF-1 (300 ng/ml or 39.2 nM) were included. Experiments were terminated at 7-day and 10-day timepoints, and the sGAG biosynthesis rate, metabolic rate, sGAG loss to culture medium and sGAG content of the explants were measured.
The metabolic rate of cartilage explants was measured using the Alamar Blue assay (ThermoFisher). Cartilage explants were incubated for 3 hours in a 1× solution of Alamar Blue dissolved in culture medium. At the end of the incubation period, the absorbance of the medium at 570 nm and 600 nm was measured using a microplate reader (Synergy H1 Hybrid Multi-Mode Microplate Reader, BioTek). These readings were used to calculate the percentage reduction of Alamar Blue, which is directly proportional to the explant metabolic rate. These values were first normalized by individual explant weights. Following this, the weight-normalized readings for the treatment groups were normalized by the weight-normalized mean value for the untreated controls. To measure the chondrocyte biosynthesis rate of sulfated glycosaminoglycans (sGAGs), cartilage explants were cultured in the presence of 10 μCi/mL 35S-sulfate radiolabel during the final two days of each experiment. […] To calculate the cumulative loss of GAGs from the explants, the amount of sGAG lost to the medium and that left behind in the explants at the end of the experiment were measured using the dimethylene blue (DMMB) dye binding assay (Farndale et al., Biochim Biophys Acta. 883(2):173-177 (1986)).

Substance | Uptake ratio (Mean) ([1]; 36 hr) | Uptake ratio (Mean) ([1]; 108 hr) | aggrecan biosynthesis compared to the untreated control [2] | cumulative sGAG loss compared to the untreated control [3]
(+9GFP)-(GGGGS)3-(IGF-1): fusion protein of +9 GFP and human IGF-1 with flexible (GGGGS)3 linker, SEQ ID NO: 9 | 13.1 | 24.2 |  | 
IL-1β: human IL-1β (PeproTech), cytokine used to induce osteoarthritis-like biosynthesis loss in cartilage explants [reference compound] |  |  | significant reduction | higher cumulative sGAG loss
